# *1 amine or outer side, *2 acyl side, *3 side chain or, on linkers, in order; H or OH if unused. [ ]: non-standard residue; d: D form. TyrEtNAc = L-tyrosine O-ethyl acetamide, (S)-3-(4-(2-acetamidoethoxy)phenyl)-2-aminopropanoic acid, CC(=O)NCCOc1ccc(C[C@H](N[*:1])C(=O)[*:2])cc1; hSOMe = (S)-2-amino-4-methoxybutanoic acid, COCC[C@H](N[*:1])C(=O)[*:2]; Trp(4-Cl)(βS-Me) = C[C@@H](c1c[nH]c2cccc(Cl)c12)[C@H](N)C(=O)O; Pro(trans-4-NH2) = O=C([C@@H]1C[C@@H](N[*:3])CN1[*:1])[*:2]; Trp(βS-Me,4-F) = C[C@@H](c1c[nH]c2cccc(F)c12)[C@H](N)C(=O)O; Bip(4'-COOH) = N[C@@H](Cc1ccc(-c2ccc(C(=O)O)cc2)cc1)C(=O)O; SerOMe = O-methyl-L-serine, COC[C@H](N[*:1])C(=O)[*:2]; Phe(4-COOH) = N[C@@H](Cc1ccc(C(=O)O)cc1)C(=O)O; 1Nal = N[C@@H](Cc1cccc2ccccc12)C(=O)O; hTyr = N[C@@H](CCc1ccc(O)cc1)C(=O)O; hPhe = N[C@@H](CCc1ccccc1)C(=O)O; 4Pal = N[C@@H](Cc1ccncc1)C(=O)O; Dap(Me2) = CN(C)C[C@H](N)C(=O)O; dDab = NCC[C@@H](N)C(=O)O; dNMeA = CN[C@H](C)C(=O)O; Dab = NCC[C@H](N)C(=O)O; Dap = NC[C@H](N)C(=O)O
# Target: Recombinant human IL-1β (BioLegend 579404) (human, UniProt P01584 117-269)
# Experiment: cell-based or functional assay
row,Binder,MRC5 IC50 [nM]
1,cyclo([TyrEtNAc]W[Phe(4-COOH)]G[Pro(trans-4-NH2)][Trp(4-Cl)(βS-Me)]D[dNMeA]G[Bip(4'-COOH)]WS[dA][hTyr]) (SMILES CC(=O)NCCOc1ccc(C[C@@H]2NC(=O)[C@H](CCc3ccc(O)cc3)NC(=O)[C@@H](C)NC(=O)[C@H](CO)NC(=O)[C@H](Cc3c[nH]c4ccccc34)NC(=O)[C@H](Cc3ccc(-c4ccc(C(=O)O)cc4)cc3)NC(=O)CNC(=O)[C@@H](C)N(C)C(=O)[C@H](CC(=O)O)NC(=O)[C@H]([C@@H](C)c3c[nH]c4cccc(Cl)c34)NC(=O)[C@@H]3C[C@@H](N)CN3C(=O)CNC(=O)[C@H](Cc3ccc(C(=O)O)cc3)NC(=O)[C@H](Cc3c[nH]c4ccccc34)NC2=O)cc1) [SEQ ID NO: 151 (Example No. 151)],0.0759
2,"cyclo([TyrEtNAc]W[Phe(4-COOH)]G[Pro(trans-4-NH2)][Trp(βS-Me,4-F)]D[dNMeA]G[Bip(4'-COOH)][4Pal]L[dA][hTyr]) (SMILES CC(=O)NCCOc1ccc(C[C@@H]2NC(=O)[C@H](CCc3ccc(O)cc3)NC(=O)[C@@H](C)NC(=O)[C@H](CC(C)C)NC(=O)[C@H](Cc3ccncc3)NC(=O)[C@H](Cc3ccc(-c4ccc(C(=O)O)cc4)cc3)NC(=O)CNC(=O)[C@@H](C)N(C)C(=O)[C@H](CC(=O)O)NC(=O)[C@H]([C@@H](C)c3c[nH]c4cccc(F)c34)NC(=O)[C@@H]3C[C@@H](N)CN3C(=O)CNC(=O)[C@H](Cc3ccc(C(=O)O)cc3)NC(=O)[C@H](Cc3c[nH]c4ccccc34)NC2=O)cc1) [SEQ ID NO: 156 (Example No. 156)]",0.948
3,cyclo([TyrEtNAc]W[Phe(4-COOH)]G[Pro(trans-4-NH2)][Trp(4-Cl)(βS-Me)]D[dNMeA]G[Bip(4'-COOH)]WL[dA][hTyr]) (SMILES CC(=O)NCCOc1ccc(C[C@@H]2NC(=O)[C@H](CCc3ccc(O)cc3)NC(=O)[C@@H](C)NC(=O)[C@H](CC(C)C)NC(=O)[C@H](Cc3c[nH]c4ccccc34)NC(=O)[C@H](Cc3ccc(-c4ccc(C(=O)O)cc4)cc3)NC(=O)CNC(=O)[C@@H](C)N(C)C(=O)[C@H](CC(=O)O)NC(=O)[C@H]([C@@H](C)c3c[nH]c4cccc(Cl)c34)NC(=O)[C@@H]3C[C@@H](N)CN3C(=O)CNC(=O)[C@H](Cc3ccc(C(=O)O)cc3)NC(=O)[C@H](Cc3c[nH]c4ccccc34)NC2=O)cc1) [SEQ ID NO: 148 (Example No. 148)],0.0483
4,cyclo([TyrEtNAc]W[Phe(4-COOH)]G[Pro(trans-4-NH2)][Trp(4-Cl)(βS-Me)]D[dNMeA]G[Bip(4'-COOH)]W[Dap(Me2)][dA][hTyr]) (SMILES CC(=O)NCCOc1ccc(C[C@@H]2NC(=O)[C@H](CCc3ccc(O)cc3)NC(=O)[C@@H](C)NC(=O)[C@H](CN(C)C)NC(=O)[C@H](Cc3c[nH]c4ccccc34)NC(=O)[C@H](Cc3ccc(-c4ccc(C(=O)O)cc4)cc3)NC(=O)CNC(=O)[C@@H](C)N(C)C(=O)[C@H](CC(=O)O)NC(=O)[C@H]([C@@H](C)c3c[nH]c4cccc(Cl)c34)NC(=O)[C@@H]3C[C@@H](N)CN3C(=O)CNC(=O)[C@H](Cc3ccc(C(=O)O)cc3)NC(=O)[C@H](Cc3c[nH]c4ccccc34)NC2=O)cc1) [SEQ ID NO: 146 (Example No. 146)],0.114
5,cyclo([TyrEtNAc]W[Phe(4-COOH)]G[Pro(trans-4-NH2)][Trp(4-Cl)(βS-Me)]D[dNMeA]G[Bip(4'-COOH)]W[SerOMe][dA][hTyr]) (SMILES COC[C@@H]1NC(=O)[C@H](Cc2c[nH]c3ccccc23)NC(=O)[C@H](Cc2ccc(-c3ccc(C(=O)O)cc3)cc2)NC(=O)CNC(=O)[C@@H](C)N(C)C(=O)[C@H](CC(=O)O)NC(=O)[C@H]([C@@H](C)c2c[nH]c3cccc(Cl)c23)NC(=O)[C@@H]2C[C@@H](N)CN2C(=O)CNC(=O)[C@H](Cc2ccc(C(=O)O)cc2)NC(=O)[C@H](Cc2c[nH]c3ccccc23)NC(=O)[C@H](Cc2ccc(OCCNC(C)=O)cc2)NC(=O)[C@H](CCc2ccc(O)cc2)NC(=O)[C@@H](C)NC1=O) [SEQ ID NO: 153 (Example No. 153)],0.088
6,cyclo([TyrEtNAc]W[Phe(4-COOH)]G[Pro(trans-4-NH2)][Trp(4-Cl)(βS-Me)]D[dNMeA]G[Bip(4'-COOH)]W[SerOMe][dA][hPhe]) (SMILES COC[C@@H]1NC(=O)[C@H](Cc2c[nH]c3ccccc23)NC(=O)[C@H](Cc2ccc(-c3ccc(C(=O)O)cc3)cc2)NC(=O)CNC(=O)[C@@H](C)N(C)C(=O)[C@H](CC(=O)O)NC(=O)[C@H]([C@@H](C)c2c[nH]c3cccc(Cl)c23)NC(=O)[C@@H]2C[C@@H](N)CN2C(=O)CNC(=O)[C@H](Cc2ccc(C(=O)O)cc2)NC(=O)[C@H](Cc2c[nH]c3ccccc23)NC(=O)[C@H](Cc2ccc(OCCNC(C)=O)cc2)NC(=O)[C@H](CCc2ccccc2)NC(=O)[C@@H](C)NC1=O) [SEQ ID NO: 152 (Example No. 152)],0.06
7,cyclo([TyrEtNAc]W[Phe(4-COOH)]G[Pro(trans-4-NH2)][Trp(4-Cl)(βS-Me)]D[dNMeA]G[Bip(4'-COOH)]WS[dA][hPhe]) (SMILES CC(=O)NCCOc1ccc(C[C@@H]2NC(=O)[C@H](CCc3ccccc3)NC(=O)[C@@H](C)NC(=O)[C@H](CO)NC(=O)[C@H](Cc3c[nH]c4ccccc34)NC(=O)[C@H](Cc3ccc(-c4ccc(C(=O)O)cc4)cc3)NC(=O)CNC(=O)[C@@H](C)N(C)C(=O)[C@H](CC(=O)O)NC(=O)[C@H]([C@@H](C)c3c[nH]c4cccc(Cl)c34)NC(=O)[C@@H]3C[C@@H](N)CN3C(=O)CNC(=O)[C@H](Cc3ccc(C(=O)O)cc3)NC(=O)[C@H](Cc3c[nH]c4ccccc34)NC2=O)cc1) [SEQ ID NO: 150 (Example No. 150)],0.0633
8,cyclo([TyrEtNAc]W[Phe(4-COOH)]G[Pro(trans-4-NH2)][Trp(4-Cl)(βS-Me)]D[dNMeA]G[Bip(4'-COOH)]W[Dap][dA][hTyr]) (SMILES CC(=O)NCCOc1ccc(C[C@@H]2NC(=O)[C@H](CCc3ccc(O)cc3)NC(=O)[C@@H](C)NC(=O)[C@H](CN)NC(=O)[C@H](Cc3c[nH]c4ccccc34)NC(=O)[C@H](Cc3ccc(-c4ccc(C(=O)O)cc4)cc3)NC(=O)CNC(=O)[C@@H](C)N(C)C(=O)[C@H](CC(=O)O)NC(=O)[C@H]([C@@H](C)c3c[nH]c4cccc(Cl)c34)NC(=O)[C@@H]3C[C@@H](N)CN3C(=O)CNC(=O)[C@H](Cc3ccc(C(=O)O)cc3)NC(=O)[C@H](Cc3c[nH]c4ccccc34)NC2=O)cc1) [SEQ ID NO: 145 (Example No. 145)],0.0748
9,cyclo([TyrEtNAc]W[Phe(4-COOH)]G[Pro(trans-4-NH2)][Trp(4-Cl)(βS-Me)]D[dNMeA]G[Bip(4'-COOH)]WL[dDab][hTyr]) (SMILES CC(=O)NCCOc1ccc(C[C@@H]2NC(=O)[C@H](CCc3ccc(O)cc3)NC(=O)[C@@H](CCN)NC(=O)[C@H](CC(C)C)NC(=O)[C@H](Cc3c[nH]c4ccccc34)NC(=O)[C@H](Cc3ccc(-c4ccc(C(=O)O)cc4)cc3)NC(=O)CNC(=O)[C@@H](C)N(C)C(=O)[C@H](CC(=O)O)NC(=O)[C@H]([C@@H](C)c3c[nH]c4cccc(Cl)c34)NC(=O)[C@@H]3C[C@@H](N)CN3C(=O)CNC(=O)[C@H](Cc3ccc(C(=O)O)cc3)NC(=O)[C@H](Cc3c[nH]c4ccccc34)NC2=O)cc1) [SEQ ID NO: 149 (Example No. 149)],0.81
10,cyclo([TyrEtNAc]W[Phe(4-COOH)]G[Pro(trans-4-NH2)][Trp(4-Cl)(βS-Me)]D[dNMeA]G[Bip(4'-COOH)]W[hSOMe][dA][hTyr]) (SMILES COCC[C@@H]1NC(=O)[C@H](Cc2c[nH]c3ccccc23)NC(=O)[C@H](Cc2ccc(-c3ccc(C(=O)O)cc3)cc2)NC(=O)CNC(=O)[C@@H](C)N(C)C(=O)[C@H](CC(=O)O)NC(=O)[C@H]([C@@H](C)c2c[nH]c3cccc(Cl)c23)NC(=O)[C@@H]2C[C@@H](N)CN2C(=O)CNC(=O)[C@H](Cc2ccc(C(=O)O)cc2)NC(=O)[C@H](Cc2c[nH]c3ccccc23)NC(=O)[C@H](Cc2ccc(OCCNC(C)=O)cc2)NC(=O)[C@H](CCc2ccc(O)cc2)NC(=O)[C@@H](C)NC1=O) [SEQ ID NO: 147 (Example No. 147)],0.0926
11,"cyclo([TyrEtNAc]W[Phe(4-COOH)]G[Pro(trans-4-NH2)][Trp(βS-Me,4-F)]D[dNMeA]G[Bip(4'-COOH)][1Nal][Dab][dA][hTyr]) (SMILES CC(=O)NCCOc1ccc(C[C@@H]2NC(=O)[C@H](CCc3ccc(O)cc3)NC(=O)[C@@H](C)NC(=O)[C@H](CCN)NC(=O)[C@H](Cc3cccc4ccccc34)NC(=O)[C@H](Cc3ccc(-c4ccc(C(=O)O)cc4)cc3)NC(=O)CNC(=O)[C@@H](C)N(C)C(=O)[C@H](CC(=O)O)NC(=O)[C@H]([C@@H](C)c3c[nH]c4cccc(F)c34)NC(=O)[C@@H]3C[C@@H](N)CN3C(=O)CNC(=O)[C@H](Cc3ccc(C(=O)O)cc3)NC(=O)[C@H](Cc3c[nH]c4ccccc34)NC2=O)cc1) [SEQ ID NO: 154 (Example No. 154)]",0.196
12,"cyclo([TyrEtNAc]W[Phe(4-COOH)]G[Pro(trans-4-NH2)][Trp(βS-Me,4-F)]D[dNMeA]G[Bip(4'-COOH)][1Nal]S[dA][hTyr]) (SMILES CC(=O)NCCOc1ccc(C[C@@H]2NC(=O)[C@H](CCc3ccc(O)cc3)NC(=O)[C@@H](C)NC(=O)[C@H](CO)NC(=O)[C@H](Cc3cccc4ccccc34)NC(=O)[C@H](Cc3ccc(-c4ccc(C(=O)O)cc4)cc3)NC(=O)CNC(=O)[C@@H](C)N(C)C(=O)[C@H](CC(=O)O)NC(=O)[C@H]([C@@H](C)c3c[nH]c4cccc(F)c34)NC(=O)[C@@H]3C[C@@H](N)CN3C(=O)CNC(=O)[C@H](Cc3ccc(C(=O)O)cc3)NC(=O)[C@H](Cc3c[nH]c4ccccc34)NC2=O)cc1) [SEQ ID NO: 155 (Example No. 155)]",0.22

# — patent publication US20230406885A1, “CYCLIC PEPTIDES FOR TRAPPING INTERLEUKIN-1 BETA” (MERCK SHARP & DOHME LLC, priority 2022, published 2023)
